From IntAct's records for PubMed 18385733

B1: Mediator of RNA polymerase II transcription subunit 15 (Saccharomyces cerevisiae), P19659 (parent)
chain: MSAAPVQDKDTLSNAERAKNVNGLLQVLMDINTLNGGSSDTADKIRIHAKNFEAALFAKSSSKKEYMDSMNEKVAVMRNTYNTRKNAVTAAAANNNIKPVEQHHINNLKNSGNSANNMNVNMNLNPQMFLNQQAQARQQVAQQLRNQQQQQQQQQQQQRRQLTPQQQQLVNQMKVAPIPKQLLQRIPNIPPNINTWQQVTALAQQKLLTPQDMEAAKEVYKIHQQLLFKARLQQQQAQAQAQANNNNNGLPQNGNINNNINIPQQQQMQPPNSSANNNPLQQQSSQNTVPNVLNQINQIFSPEEQRSLLQEAIETCKNFEKTQLGSTMTEPVKQSFIRKYINQKALRKIQALRDVKNNNNANNNGSNLQRAQNVPMNIIQQQQQQNTNNNDTIATSATPNAAAFSQQQNASSKLYQMQQQQQAQAQAQAQAQAQAQAQAQAQAAQAAQAQAQAQAQAQAQAQAQAQAQAQAQAQAQAQAQAHAQHQPSQQPQQAQQQPNPLHGLTPTAKDVEVIKQLSLDASKTNLRLTDVTNSLSNEEKEKIKMKLKQGQKLFVQVSNFAPQVYIITKNENFLKEVFQLRIFVKEILEKCAEGIFVVKLDTVDRLIIKYQKYWESMRIQILRRQAILRQQQQMANNNGNPGTTSTGNNNNIATQQNMQQSLQQMQHLQQLKMQQQQQQQQQQQQQQQQQQQQQQQHIYPSSTPGVANYSAMANAPGNNIPYMNHKNTSSMDFLNSMENTPKVPVSAAATPSLNKTINGKVNGRTKSNTIPVTSIPSTNKKLSISNAASQQPTPRSASNTAKSTPNTNPSPLKTQTKNGTPNPNNMKTVQSPMGAQPSYNSAIIENAFRKEELLLKDLEIRKLEISSRFKHRQEIFKDSPMDLFMSTLGDCLGIKDEEMLTSCTIPKAVVDHINGSGKRKPTKAAQRARDQDSIDISIKDNKLVMKSKFNKSNRSYSIALSNVAAIFKGIGGNFKDLSTLVHSSSPSTSSNMDVGNPRKRKASVLEISPQDSIASVLSPDSNIMSDSKKIKVDSPDDPFMTKSGATTSEKQEVTNEAPFLTSGTSSEQFNVWDWNNWTSAT
partner: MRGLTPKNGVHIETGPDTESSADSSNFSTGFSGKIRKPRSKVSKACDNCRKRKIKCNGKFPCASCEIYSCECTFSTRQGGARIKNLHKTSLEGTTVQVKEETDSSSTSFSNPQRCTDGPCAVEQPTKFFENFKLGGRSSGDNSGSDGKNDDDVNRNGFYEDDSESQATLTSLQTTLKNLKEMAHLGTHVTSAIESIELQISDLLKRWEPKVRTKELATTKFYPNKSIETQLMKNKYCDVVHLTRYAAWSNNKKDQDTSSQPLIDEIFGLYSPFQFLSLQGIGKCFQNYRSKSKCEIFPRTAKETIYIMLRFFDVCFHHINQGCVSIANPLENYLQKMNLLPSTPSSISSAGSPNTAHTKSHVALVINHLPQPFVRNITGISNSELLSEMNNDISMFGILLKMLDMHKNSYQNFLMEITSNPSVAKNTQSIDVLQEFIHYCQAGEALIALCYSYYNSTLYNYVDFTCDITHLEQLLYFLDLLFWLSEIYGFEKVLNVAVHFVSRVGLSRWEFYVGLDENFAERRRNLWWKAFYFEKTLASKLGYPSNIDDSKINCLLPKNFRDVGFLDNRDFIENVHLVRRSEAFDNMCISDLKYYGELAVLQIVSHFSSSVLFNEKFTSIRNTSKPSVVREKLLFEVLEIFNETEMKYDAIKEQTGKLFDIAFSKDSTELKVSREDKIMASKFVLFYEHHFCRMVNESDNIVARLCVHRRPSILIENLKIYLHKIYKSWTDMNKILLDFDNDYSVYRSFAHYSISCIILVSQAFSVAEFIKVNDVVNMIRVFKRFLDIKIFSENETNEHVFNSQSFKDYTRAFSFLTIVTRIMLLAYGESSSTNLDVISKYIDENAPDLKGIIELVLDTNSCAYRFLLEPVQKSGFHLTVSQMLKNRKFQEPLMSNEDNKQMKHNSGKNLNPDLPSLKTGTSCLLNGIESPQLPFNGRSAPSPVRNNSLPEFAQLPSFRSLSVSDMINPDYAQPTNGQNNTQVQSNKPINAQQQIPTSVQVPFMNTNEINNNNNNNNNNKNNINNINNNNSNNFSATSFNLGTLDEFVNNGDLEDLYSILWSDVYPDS

Variants of: B1
Conditions: with pdr1_yeast PDR1, P12383

Effect of a mutation on the interaction, disrupting interaction:
R78L
S69D
V27D
K63Q
V76D
M77E
